Test results from patent US5705398A, “Methods for identifying inhibitors of LPS-mediated LBP binding” (The Scripps Research Institute, priority 1994, dated 1998).

T1: CD14 (Homo sapiens, UniProt P08571)
T1 construct: made in house; host or cells: CHO cells (clone 523, vector pEE14), secreted into culture medium
T1 sequence (P08571 20-375): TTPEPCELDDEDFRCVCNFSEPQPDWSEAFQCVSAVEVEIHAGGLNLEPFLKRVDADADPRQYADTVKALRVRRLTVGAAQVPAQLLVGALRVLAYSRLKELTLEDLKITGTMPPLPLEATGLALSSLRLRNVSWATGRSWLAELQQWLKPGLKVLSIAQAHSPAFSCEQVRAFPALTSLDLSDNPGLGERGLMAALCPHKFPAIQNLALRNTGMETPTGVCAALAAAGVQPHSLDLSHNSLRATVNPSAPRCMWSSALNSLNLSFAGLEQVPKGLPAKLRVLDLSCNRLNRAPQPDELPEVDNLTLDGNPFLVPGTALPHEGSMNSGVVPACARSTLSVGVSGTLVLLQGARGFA

T2: LPS-Binding Protein (LBP) (Oryctolagus cuniculus, UniProt P17454)
T2 construct: isolated from acute phase rabbit serum; from tissue; host or cells: acute phase rabbit serum
T2 sequence (P17454 27-482): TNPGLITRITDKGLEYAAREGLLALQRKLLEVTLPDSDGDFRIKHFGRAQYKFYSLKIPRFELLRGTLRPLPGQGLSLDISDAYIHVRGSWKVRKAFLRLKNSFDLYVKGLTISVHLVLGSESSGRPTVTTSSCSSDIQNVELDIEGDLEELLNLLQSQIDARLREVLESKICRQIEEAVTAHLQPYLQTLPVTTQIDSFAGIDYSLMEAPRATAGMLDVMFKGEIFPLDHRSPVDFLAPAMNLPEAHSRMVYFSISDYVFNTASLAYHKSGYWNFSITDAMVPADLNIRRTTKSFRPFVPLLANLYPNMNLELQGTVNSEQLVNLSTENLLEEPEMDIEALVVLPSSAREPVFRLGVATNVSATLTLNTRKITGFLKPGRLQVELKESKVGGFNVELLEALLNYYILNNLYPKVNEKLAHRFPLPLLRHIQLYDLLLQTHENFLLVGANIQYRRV

T3: recombinant human soluble CD14 (Homo sapiens, UniProt P08571)
T3 construct: made in house; host or cells: CHO cells (clone 523, vector pEE14), secreted into culture medium
T3 sequence (P08571 20-375): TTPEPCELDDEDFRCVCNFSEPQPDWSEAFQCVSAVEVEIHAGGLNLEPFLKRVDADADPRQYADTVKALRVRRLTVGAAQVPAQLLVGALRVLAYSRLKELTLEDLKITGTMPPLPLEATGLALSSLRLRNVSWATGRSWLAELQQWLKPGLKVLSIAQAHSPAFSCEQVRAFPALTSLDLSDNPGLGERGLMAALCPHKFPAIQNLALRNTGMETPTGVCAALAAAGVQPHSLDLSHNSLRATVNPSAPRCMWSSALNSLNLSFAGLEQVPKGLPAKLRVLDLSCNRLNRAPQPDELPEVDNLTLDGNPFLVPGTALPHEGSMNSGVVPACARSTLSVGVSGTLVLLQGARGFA


Tests used:
CD14 [1] = target: T1, CD14; assay: Competition of non-fluoresceinated LPS with F-LPS in LBP/CD14 binding assay; conditions: similar to FIG. 3 with Re595 LPS
[2] = target: T2, LPS-Binding Protein (LBP); assay: Fluorescence spectroscopy assay of F-LPS binding to LBP; set-up: species or system rabbit; conditions: for fluorescence intensity, +LBP (F-LPS+peptide+LBP): 10 ng/ml F-LPS + 1 mM polypeptide + 1 ug/ml rabbit LBP, no-peptide control 2700 (Experiment A, peptides 1-4), 2300 (Experiment B, peptides 5-8); for fluorescence intensity, +peptide (F-LPS+peptide): 10 ng/ml F-LPS + 1 mM polypeptide, before LBP; for fluorescence intensity, +F-LPS (F-LPS alone): 10 ng/ml F-LPS in PBS/2 mM EDTA pH 7.4, before peptide addition (baseline of the run); for inhibition of LPS binding to LBP (in words): 1 mM polypeptide, from Table 3
Procedure: The fluorescence spectroscopy assay method detects the intensity of fluorescence of fluoresceinated LPS in the presence of LBP.
The assay reaction admixture was prepared by admixing 10 ng/ml F-LPS and 1 ug/ml rabbit LBP into a solution of phosphate buffered saline (PBS) containing 2 mM EDTA, pH 7.4. The FI was then measured with an SLM 8000 photon counting spectrophotometer (SLM, Urbana, Ill.). A continuous FI output was measured over time while first the F-LPS was added to the PBS/EDTA solution, and then the LBP was added.
To study the effect of an LBP-derived polypeptide upon the effect of LBP on the FI of F-LPS, a polypeptide was added to the assay admixture at a concentration of 1 mM polypeptide prior to the addition of LBP, which was typically added about 30 to 150 seconds after the polypeptide was added to the admixture.

Human CD14 = assay: Fluorescence spectroscopy assay of F-LPS binding to soluble CD14 in presence of LBP, with peptides; conditions: for fluorescence intensity, +peptide (F-LPS+peptide): F-LPS + polypeptide, before CD14 and LBP; for fluorescence intensity, +F-LPS (F-LPS alone): before peptide addition (baseline of the run)
Procedure: (§1) The fluorescence spectroscopy assay method also detects the intensity of fluorescence of fluoresceinated LPS in the presence of LBP and soluble CD14.
(§2) The assay to measure binding interactions between CD14 and LPS or LPS-LBP complex was conducted essentially as described in Example 1 with the following exceptions. First, the amount of rabbit LBP in the reaction admixture was 40 ng/ml. Second, soluble CD14 (sCD14) prepared as described in Example 2A was added to the reaction admixture at a concentration of 10 ug/ml prior to addition of the LBP to the reaction admixture. Peptides 6, 7 and 8, whose sequences are shown in Table 2, were each separately added to assay reaction admixtures, and the resulting FI was measured.

CD14 [3] = target: T1, CD14; assay: as above; conditions: for fluorescence intensity, +CD14: 10 ug/ml soluble CD14 added before LBP, no-peptide control 1500; for fluorescence intensity, +LBP: F-LPS + polypeptide + 10 ug/ml sCD14 + 40 ng/ml rabbit LBP, no-peptide control 6300; for inhibition of fluorescence of F-LPS / LPS binding to LBP in presence of LBP and CD14 (in words): from Table 4
Procedure: as §1, §2

[4] = target: T3, recombinant human soluble CD14; assay: F-LPS/CD14 fluorescence assay comparing LBP with other LPS-binding proteins; conditions: 20 ng/ml F-LPS; for effect on FI of F-LPS with CD14 when replacing LBP: protein 300 ng/ml, CD14 0 to 10 ug/ml
Procedure: For the assay, LBP or the other known LPS-binding proteins were added to the admixture at a concentration of 300 nanograms/milliliter (ng/ml) and were separately admixed with varying amounts the recombinant human soluble CD14 ranging in concentration from 0 to 10 micrograms/milliliter (ug/ml).
To this admixture, 20 ng/ml of F-LPS prepared in Example 1 were admixed to form a binding admixture. Fluorescence measurements were then performed as described above to determine the effect of LBP and CD14 on the FI of F-LPS.

| Molecule | fluorescence intensity, +LBP (F-LPS+peptide+LBP) [2] [FIU] | fluorescence intensity, +peptide (F-LPS+peptide) [2] [FIU] | fluorescence intensity, +F-LPS (F-LPS alone) [2] [FIU] | inhibition of LPS binding to LBP (in words) [2] | also measured |
| --- | --- | --- | --- | --- | --- |
| CCCCCCCCCCC[C@@H](O)CC(=O)N[C@H]1[C@H](OC[C@H]2O[C@H](OP(=O)(O)O)[C@H](NC(=O)C[C@H](O)CCCCCCCCCCC)[C@@H](OC(=O)C[C@H](O)CCCCCCCCCCC)[C@@H]2O)O[C@H](CO)[C@@H](OP(=O)(O)O)[C@@H]1OC(=O)C[C@H](O)CCCCCCCCCCC [lipid IVa] |  |  |  |  | inhibition of FI increase by non-fluoresceinated LPS preparations (in words) (CD14 [1]): dose dependent inhibition |
| CSSDIQNVELDIEGDLEELLNLLQSQIDARLREVLESKI [Peptide 3] | 2100 | 1300 | 800 | weakly inhibit LPS binding to LBP |  |
| GIDYSLMEAPRATA [Peptide 5] | 2000 | 750 | 750 |  |  |
| KVRKAFLRLKNSFDL [Peptide 2] | 800 | 800 | 900 | strongly inhibit LPS binding to LBP |  |
| LQPYLQTLPVTTQIDS [Peptide 4] | 2300 | 900 | 800 |  |  |
| TNPGLITRITDKGL [Peptide 1] | 2400 | 900 | 900 |  |  |
| apotransferrin |  |  |  |  | effect on FI of F-LPS with CD14 when replacing LBP [4]: no effect was detected |
| lipid A [synthetic lipid A] |  |  |  |  | inhibition of FI increase by non-fluoresceinated LPS preparations (in words) (CD14 [1]): dose dependent inhibition |
| lysozyme |  |  |  |  | effect on FI of F-LPS with CD14 when replacing LBP [4]: no effect was detected |
| LBP: LPS binding protein isolated from acute phase rabbit serum (protein, UniProt P17454 27-482, looked up) Lipopolysaccharide-binding …: TNPGLITRITDKGLEYAAREGLLALQRKLLEVTLPDSDGDFRIKHFGRAQYKFYSLKIPRFELLRGTLRPLPGQGLSLDISDAYIHVRGSWKVRKAFLRLKNSFDLYVKGLTISVHLVLGSESSGRPTVTTSSCSSDIQNVELDIEGDLEELLNLLQSQIDARLREVLESKICRQIEEAVTAHLQPYLQTLPVTTQIDSFAGIDYSLMEAPRATAGMLDVMFKGEIFPLDHRSPVDFLAPAMNLPEAHSRMVYFSISDYVFNTASLAYHKSGYWNFSITDAMVPADLNIRRTTKSFRPFVPLLANLYPNMNLELQGTVNSEQLVNLSTENLLEEPEMDIEALVVLPSSAREPVFRLGVATNVSATLTLNTRKITGFLKPGRLQVELKESKVGGFNVELLEALLNYYILNNLYPKVNEKLAHRFPLPLLRHIQLYDLLLQTHENFLLVGANIQYRRV |  |  |  |  | maximum FI ([4]; LBP 300 ng/ml, plateau at CD14 about 10 ug/ml): greater than 90,000 fluorescence units |

Now from value to molecule, other results behind:

| fluorescence intensity, +LBP (F-LPS+peptide+LBP) [2] [FIU] | fluorescence intensity, +peptide (F-LPS+peptide) [2] [FIU] | fluorescence intensity, +F-LPS (F-LPS alone) [2] [FIU] | inhibition of LPS binding to LBP (in words) [2] | Molecule | also measured |
| --- | --- | --- | --- | --- | --- |
| 1300 | 1600 | 800 | strongly inhibit LPS binding to LBP | ATLTLNTRKIT [Peptide 7] | fluorescence intensity, +peptide (F-LPS+peptide) (Human CD14): 2400 FIU; fluorescence intensity, +F-LPS (F-LPS alone) (Human CD14): 1200 FIU; fluorescence intensity, +CD14 (CD14 [3]): 2000 FIU; fluorescence intensity, +LBP (CD14 [3]): 1500 FIU; inhibition of fluorescence of F-LPS / LPS binding to LBP in presence of LBP and CD14 (in words) (CD14 [3]): strongly inhibit LPS binding to LBP |
| 1500 | 800 | 750 | strongly inhibit LPS binding to LBP | PSSAREPVFRLGVAT [Peptide 6] | fluorescence intensity, +peptide (F-LPS+peptide) (Human CD14): 1300 FIU; fluorescence intensity, +F-LPS (F-LPS alone) (Human CD14): 1200 FIU; fluorescence intensity, +CD14 (CD14 [3]): 1300 FIU; fluorescence intensity, +LBP (CD14 [3]): 3500 FIU; inhibition of fluorescence of F-LPS / LPS binding to LBP in presence of LBP and CD14 (in words) (CD14 [3]): strongly inhibit LPS binding to LBP |
| 2300 | 800 | 700 |  | QTHENFLLVGANIQYRRV [Peptide 8] | fluorescence intensity, +peptide (F-LPS+peptide) (Human CD14): 1400 FIU; fluorescence intensity, +F-LPS (F-LPS alone) (Human CD14): 1400 FIU; fluorescence intensity, +CD14 (CD14 [3]): 1500 FIU; fluorescence intensity, +LBP (CD14 [3]): 5400 FIU |
